In US20070178531A1 (BIOCHECK, published 2007) one finds A450 and Ka data, which are given here for five molecules.

One experiment addresses T1, Human Id2: Histidine (human, UniProt Q02363 1-134, limits assumed).
T1 construct: Fusion protein made in E. coli from vector pGW07; also called h-Id2: His; not shown: His tag
T1 sequence (looked up): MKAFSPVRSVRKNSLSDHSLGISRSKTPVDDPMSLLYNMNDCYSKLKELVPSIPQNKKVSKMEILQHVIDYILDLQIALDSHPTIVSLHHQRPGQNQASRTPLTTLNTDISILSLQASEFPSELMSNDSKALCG
Put plainly: ELISA, Ab 0.000 µg/ml (blank). As to the method:
(§1) The rabbit monoclonal anti-human Id3 (clone #3-3) and the rabbit monoclonal anti-mouse/human Id3 (clones #6-1, 16-1, 17-3, and 42-1) produced in Example 6 were tested reactivity against the following antigens: mouse Id1:His, human Id1:His, mouse Id2:His, human Id2:His, mouse Id3:His, human Id3:His, mouse Id4:His, human Id4:His and GST.
(§2) 1. Microtiter wells (prepared in accordance with Example 6) were coated (0.1 μg/well) with mouse Id1:His, human Id1:His, human Id2:His, human Id3:His, and 1.0 μg/well with GST. [0155] 2. Antibody Diluent: 0.25% (w/v) BSA in 0.015M KPO₄ Buffer, 0.85% (w/v) NaCl, 0.1% (w/v) NaN₃, pH=7.40 [0156] 3. Rabbit monoclonal anti-human Id3 (clone #3-3) prepared in Example 7 was diluted to […] with the antibody diluent. […] 4. Rabbit monoclonal anti-mouse/human Id3 (clones #6-1, 16-1, 17-3, 42-1) prepared in Example 7 was diluted to 0.005, 0.010, 0.025, 0.05, 0.10, 0.25, and 0.50 μg/ml with the antibody diluent. […] 5. Conjugate Diluent: 50% (v/v) which consists of an aqueous solution containing Fetal Bovine Serum in 0.05 M Tris, 1% (v/v) Proclin-300, pH 7.6. [0159] 6. Conjugate: Goat anti-rabbit IgG (H+L)-HRP conjugate. [0160] 7. TMB reagent. […] 8. Stop solution (1 N HCI). Method
(§3) 1. Dispense 100 μL of antibody diluent, diluted rabbit monoclonal human Id3, and mouse/human Id3 hybridoma supernatants into appropriate wells. […] 2. Incubate at room temperature with mechanical shaking at 750 rpm for 90 minutes. [0165] 3. Remove the incubation mixture by flicking plate content into an appropriate waste container followed by rinsing the wells 5 times with distilled water. [0166] 4. Strike the wells sharply onto absorbent paper or paper towels to remove all residual water droplets. [0167] 5. Dispense 100 μL of 1:50,000 Goat Anti-Rabbit IgG-HRP Conjugate Reagent into each well. Gently mix for 5 seconds. [0168] 6. Incubate at room temperature with mechanical shaking at 750 rpm for 90 minutes. [0169] 7. Repeat procedures 3 and 4. [0170] 8. Dispense 100 μL of TMB Reagent into each well. Gently mix for 5 seconds. [0171] 9. Incubate at room temperature with mechanical shaking at 750 rpm for 20 minutes. […] 10.
For orientation: An ELISA detects its analyte on a solid surface through an enzyme-linked reagent.

Experiment [1] addresses T2, glutathione S-transferase (GST) (UniProt P08515 1-218 = GST).
T2 construct: also called carrier protein GST
Put plainly: ELISA, Ab 0.000 µg/ml (blank). As to the method: as §1, §2, §3

The target of experiment [2] is T2, glutathione S-transferase (GST). Put plainly: ELISA, Ab 0.005 µg/ml.
For a further experiment, the target named is T3, Mouse Id3: Histidine (mouse, UniProt P41133 1-119).
T3 construct: Fusion protein made in E. coli from vector pGW07; also called m-Id3: His; Mouse Id3 (coated wells); not shown: His tag
T3 sequence: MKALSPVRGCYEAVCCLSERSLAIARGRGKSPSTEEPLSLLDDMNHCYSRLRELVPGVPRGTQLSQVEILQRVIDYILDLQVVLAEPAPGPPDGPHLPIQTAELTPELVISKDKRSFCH
Put plainly: ELISA, Ab 0.000 µg/ml (blank). As to the method:
as §1, §2, §3

For another experiment, the target named is T4, Human Id3: Histidine (human, UniProt Q02535 1-119 at identity 1.00)).
T4 construct: Fusion protein made in E. coli from vector pGW07; also called h-Id3: His; Human Id3 (coated wells); not shown: His tag
T4 chain: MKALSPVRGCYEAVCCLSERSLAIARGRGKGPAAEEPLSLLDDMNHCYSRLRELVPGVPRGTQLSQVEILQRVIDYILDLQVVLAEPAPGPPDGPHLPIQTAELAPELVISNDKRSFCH
Put plainly: ELISA, Ab 0.000 µg/ml (blank). As to the method: as §1, §2, §3

In a further experiment the target is T5, mouse Id3 protein (mouse, UniProt P41133 1-119).
T5 sequence: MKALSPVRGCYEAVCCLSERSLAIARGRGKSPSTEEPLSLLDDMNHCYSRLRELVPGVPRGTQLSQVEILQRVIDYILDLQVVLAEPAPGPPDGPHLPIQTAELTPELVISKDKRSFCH
Put plainly: SPR (BIACORE 2000), antibody immobilized on CM5, Id3 as analyte, 1:1 Langmuir. The method, then:
(§4) Antibodies were immobilized on CM5 sensor chips. All SPR (surface plasmon resonance) assays were carried out in a BIACORE 2000 instrument. A mouse monoclonal antibody was used as reference labeled at the 2nd channel (Fc2) of the chip. Rabbit monoclonal anti-human Id3 (BCH-4/#3-3) or Rabbit monoclonal anti-mouse/human Id3 (BCH-4/#6-1, #16-1 and #17-3) was immobilized on the 4th (Fc4) channel. Final conjugation of antibodies on chip surface was 1878 RU for BCH-4#3-3, BCH-4/#6-1, BCH-4/#16-1, or BCH-3/#17-3. Mouse Id-3 and human Id-3 were applied as mobile analytes. The binding assays were carried out in HBS-P buffer (10 mM HEPES, pH 7.4, containing 150 mM sodium chloride, 0.005% surfactant P-20 detergent and 0.12% glycerol). Kinetics were determined with 8 different analyte concentrations ranging from 3.4 nM to 573 nM. For analyses, 125 μl of analyte were injected (Kinject protocol) at 30 μl/min and the dissociation lasted for 240 seconds at the same flow rate. The surface was regenerated by washing with 50 μl solution of 100 mM glycine and 100 mM of HCl, pH 1.81, at 60 μl/min and the extra cleaning protocol was followed. The kinetic analyses of sensograms were based on the Langmuir (1:1) binding model. Both association rate constant and dissociation rate constants for the interaction of mouse Id-3 and human Id-3 with the immobilized antibodies were determined from the analysis of sensograms using the Biaevaluation software, version 3.0. All binding curves were corrected for background and bulk refractive index contribution by subtraction of the reference flow cells. Models were fitted globally across the data sets. All experiments and analyses were duplicated.
A general note: In SPR one partner is held on a chip, and binding of the other changes the refractive index at the surface.

Another experiment deals with T6, human Id3 protein (human, UniProt Q02535 1-119 at identity 1.00)).
T6 chain: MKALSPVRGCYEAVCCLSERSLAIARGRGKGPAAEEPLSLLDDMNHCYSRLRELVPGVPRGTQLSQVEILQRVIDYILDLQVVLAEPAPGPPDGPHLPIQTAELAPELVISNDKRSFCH
The description is as above. As to the method:
as §4

T2 sequence (P08515 whole entry): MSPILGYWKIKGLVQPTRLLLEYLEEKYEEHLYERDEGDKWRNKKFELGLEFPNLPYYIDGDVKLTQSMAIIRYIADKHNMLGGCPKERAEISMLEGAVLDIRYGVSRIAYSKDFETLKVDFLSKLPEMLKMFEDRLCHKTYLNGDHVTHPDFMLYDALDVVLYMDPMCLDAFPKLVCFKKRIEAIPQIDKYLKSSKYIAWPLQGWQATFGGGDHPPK

B1: rabbit monoclonal anti-human Id3, clone #BCH-4/#3-3 (antibody, V domains shown)
VH: QSVEESGGRLVTPGTPLTLTCTVSGIDLSSYAMSWVRQAPGKGLEWIGVIFPSNNVYYASWAKGRFTISKTSTTVDLKITSPTTEDTATYFCASMGAFDSWGPGTLVTVSS
VL: QVLTQTPSPVSAAVGGTVTINCQASQSIYNDNDLAWFQQKPGQPPKLLIYDASTLTSGVPSRFKGSGSGTQFTLTISDLDCDDAATYYCAARYSGNIYGFGGGTEVVVK
notes: Rabbit IgG from a rabbit hybridoma; also called h Id3 MoAb 3-3
On to B1, for which the A450 worked out at 0.043 A450 with Human Id2: Histidine, 0.044 A450 in experiment [1] and 0.045 A450 in experiment [2].

B2: rabbit monoclonal anti-mouse/human Id3, clone #BCH-4/#16-1 (antibody, V domains shown)
VH: QSVEESGGRLVTPGTPLTLTCTASGFSLSSYYIHWVRQAPGKALEWIGYISDGGTTYYASWAKGRFTISKTSSTTVDLKMTSLTTEDTATYFCARQGFNIWGPGTLVTVSL
VL: AVLTQTPSPVSAAVGGTVTISCQSSQSVYNNNWLSWFQQKSGQPPKLLIYETSKLESGVPSRFKGSGSGTQFTLTIIDVQCDDAATYYCLGGYWTTSDNNIFGGGTEVVVK
notes: Rabbit IgG from a rabbit hybridoma; also called m/h Id3 MoAb 16-1
As to B2, the A450 in the experiment with Human Id2: Histidine amounted to 0.049 A450; with Mouse Id3: Histidine, 0.044 A450; in experiment [1], 0.048 A450; with Human Id3: Histidine, 0.046 A450; in experiment [2] it was 0.048 A450. Also, the values for the Ka in the experiment with mouse Id3 protein and with human Id3 protein were 2.42e+09 M⁻¹ and 1.89e+11 M⁻¹, respectively.

B3: rabbit monoclonal anti-mouse/human Id3, clone #BCH-4/#6-1 (antibody, V domains shown)
VH: QSVEESGGRLVTPGTPLTLTCTASGFSLSNVYIHWVRQAPGKGLEWIGYISDGDTARYATWAKGRFTISKTSSTTVNLKMTSLTTEDTATYFCARQGFNIWGPGTLVTVSL
VL: AVLTQTPSPVSAAVGGTVSISCQSSQSVWNNNWLSWFQQKPGQPPKLLIYETSKLESGVPSRFKGSGSGTQFTLTISDVQCDDAATYYCLGGYWTTSDNNVFGGGTEVVVK
notes: Rabbit IgG from a rabbit hybridoma; also called m/h Id3 MoAb 6-1
For the molecule B3, the A450 in the experiment with Human Id2: Histidine is 0.045 A450; with Mouse Id3: Histidine it was 0.047 A450; in experiment [1], 0.047 A450; with Human Id3: Histidine, 0.043 A450; in experiment [2], 0.046 A450. For the same molecule, the Ka with mouse Id3 protein is 5.26e+08 M⁻¹; with human Id3 protein, 4.13e+11 M⁻¹.

B4: rabbit monoclonal anti-mouse/human Id3, clone #BCH-4/#17-3 (antibody, V domains shown)
VH: QSVEESGGRLVTPGTPLTLTCTASGFSLSNVYIHWVRQAPGKGLEWIGYISDGDTARYATWAKGRFTISKTSSTTVNLKMTSLTTEDTATYFCARQGFNIWGPGTLVTVSL
VL: AVLTQTPSPVSAAVGGTVSISCQSSQSVWNNNWLSWFQQKPGQPPKLLIYETSKLESGVPSRFKGSGSGTQFTLTISDVQCDDAATYYCLGGYWTTSDNNVFGGGTEVVVK
notes: Rabbit IgG from a rabbit hybridoma; also called m/h Id3 MoAb 17-3; BCH-3/#17-3
B4: the A450 in the experiment with Human Id2: Histidine stood at 0.043 A450; with Mouse Id3: Histidine it was 0.047 A450; in experiment [1] it was 0.046 A450; in the experiment with Human Id3: Histidine, 0.045 A450; in experiment [2] it was 0.048 A450. The Ka with mouse Id3 protein stood at 3.32e+11 M⁻¹; in the experiment with human Id3 protein it was 7.35e+10 M⁻¹.

B5: rabbit monoclonal anti-mouse/human Id3, clone #BCH-4/#42-1 (antibody, V domains shown)
VH: QSVEESGGRLVTPGTPLTLTCTASGFSLSSYYIHWVRQAPGKALEWIGYISDGGTTYYASWAKGRFTISKTSSTTVDLKMTSLTTEDTATYFCARQGFNIWGPGTLVTVSL
VL: AVLTQTPSPVSAAVGGTVTISCQSSQSVYNNNWLSWFQQKSGQPPKLLIYETSKLESGVPSRFKGSGSGTQFTLTIIDVQCDDAATYYCLGGYWSTSDNNIFGGGTEVVVK
notes: Rabbit IgG from a rabbit hybridoma; also called m/h Id3 MoAb 42-1
In the case of B5, the A450 with Human Id2: Histidine worked out at 0.044 A450; with Mouse Id3: Histidine, 0.047 A450; in experiment [1] it was 0.048 A450; in the experiment with Human Id3: Histidine, 0.044 A450; in experiment [2], 0.048 A450.
